Assay results as given in patent publication US20180051081A1 (published 2018).

Experiments:
rat CD47 = target: T1, rat CD47 (rat, UniProt P97829 19-303); assay: FACS, rat RBCs, supernatant 10 ng/ml
T1 construct: whole, on cells; also called CD47 on rat RBCs
T1 sequence (looked up): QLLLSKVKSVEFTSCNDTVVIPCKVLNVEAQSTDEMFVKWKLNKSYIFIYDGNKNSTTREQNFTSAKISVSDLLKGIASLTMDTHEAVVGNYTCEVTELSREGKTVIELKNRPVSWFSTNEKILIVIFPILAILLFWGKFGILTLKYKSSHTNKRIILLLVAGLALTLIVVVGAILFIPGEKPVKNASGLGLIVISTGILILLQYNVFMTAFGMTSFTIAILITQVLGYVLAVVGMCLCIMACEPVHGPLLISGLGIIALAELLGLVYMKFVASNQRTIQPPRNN
Method: (§1) RBCs are incubated for 60 minutes on ice with tissue culture supernatants containing the secreted humanized antibodies at a concentration of 10 ng/ml in a solution of phosphate buffered saline, pH 7.2, 2.5 mM EDTA (PBS+E), or with various concentrations of purified antibodies. Cells are then washed with cold PBS+E, and incubated for an additional hour on ice with FITC labeled donkey anti-human antibody (Jackson Immuno Research Labs, West Grove, Pa.; Catalogue #709-096-149) in PBS+E. Cells are then washed with PBS+E, and antibody binding is analyzed using a BD FACSAria Cell Sorter (Becton Dickinson) or a C6 Accuri Flow Cytometer (Becton Dickinson). Antibody binding is quantitated by comparison of mean fluorescence values relative to that of chimeric antibody >VxP037-01LC (SEQ ID NO:7))/>VxP037-01HC (SEQ ID NO:57). The mean fluorescence value for each antibody is divided by the mean fluorescence value for the chimeric antibody.

mouse CD47 = target: T2, mouse CD47 (mouse, UniProt Q61735 19-303); assay: FACS, mouse RBCs, supernatant 10 ng/ml
T2 construct: whole, on cells; also called CD47 on mouse RBCs; CD47 on 4T1 cells
T2 sequence (looked up): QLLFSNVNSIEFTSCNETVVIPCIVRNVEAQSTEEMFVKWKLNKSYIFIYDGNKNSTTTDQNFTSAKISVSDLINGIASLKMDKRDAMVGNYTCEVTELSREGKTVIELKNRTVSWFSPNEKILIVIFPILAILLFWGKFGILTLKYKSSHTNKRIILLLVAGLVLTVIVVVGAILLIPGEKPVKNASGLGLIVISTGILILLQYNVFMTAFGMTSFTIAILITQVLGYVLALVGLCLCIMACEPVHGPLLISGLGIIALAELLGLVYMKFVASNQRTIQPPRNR
Method: as §1

human CD47 = target: T3, human CD47 (human, UniProt Q08722 19-323); assay: FACS, human RBCs, supernatant 10 ng/ml
T3 construct: whole, on cells; also called CD47 on human RBCs; CD47 on OV10 cells
Method: as §1

dog CD47 = target: T4, dog CD47 (dog, UniProt A0A8I3PM61 19-310); assay: FACS, dog RBCs, supernatant 10 ng/ml
T4 construct: also called CD47 on dog RBCs
T4 sequence: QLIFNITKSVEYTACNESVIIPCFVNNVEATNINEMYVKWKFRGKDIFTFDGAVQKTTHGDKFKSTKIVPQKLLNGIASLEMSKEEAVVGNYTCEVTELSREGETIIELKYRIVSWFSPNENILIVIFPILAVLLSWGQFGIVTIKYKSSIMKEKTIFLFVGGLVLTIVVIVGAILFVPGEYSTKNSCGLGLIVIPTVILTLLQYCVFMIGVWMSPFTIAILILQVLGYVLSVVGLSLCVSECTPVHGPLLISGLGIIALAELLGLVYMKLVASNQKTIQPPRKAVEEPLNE
Method: as §1

pig CD47 = target: T5, pig CD47 (pig, UniProt Q9GKE8 19-303); assay: FACS, pig RBCs, supernatant 10 ng/ml
T5 construct: whole, on cells; also called CD47 on porcine RBCs
T5 sequence (looked up): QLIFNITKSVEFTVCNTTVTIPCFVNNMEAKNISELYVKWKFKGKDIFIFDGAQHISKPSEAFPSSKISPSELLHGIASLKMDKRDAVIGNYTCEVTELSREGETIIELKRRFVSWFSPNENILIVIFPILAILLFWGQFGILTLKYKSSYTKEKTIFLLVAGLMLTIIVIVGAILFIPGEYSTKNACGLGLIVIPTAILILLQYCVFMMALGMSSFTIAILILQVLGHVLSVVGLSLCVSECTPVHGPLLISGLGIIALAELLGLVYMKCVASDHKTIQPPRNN
Method: as §1

T3 sequence (Q08722 19-323): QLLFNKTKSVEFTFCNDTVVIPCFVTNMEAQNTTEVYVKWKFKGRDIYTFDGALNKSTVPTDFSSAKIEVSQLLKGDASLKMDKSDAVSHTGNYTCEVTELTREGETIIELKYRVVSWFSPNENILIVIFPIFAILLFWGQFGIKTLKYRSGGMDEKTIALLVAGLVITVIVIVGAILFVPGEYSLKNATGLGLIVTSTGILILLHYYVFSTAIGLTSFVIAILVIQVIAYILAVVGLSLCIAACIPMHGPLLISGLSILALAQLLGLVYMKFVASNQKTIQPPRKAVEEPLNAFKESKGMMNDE

B1: Clone 23 (pVxK7b-037-hum23-LC / pVxK7b-037-hum23-HC) (antibody, human IgG1, kappa)
light: DIVMTQTPLSLPVTPGEPASISCRSSQSLVHSNGNTYLHWYQQKPGKAPKLLIYKVSYRFSGVPDRFSGSGSGTDFTLKISRVEAEDVGVYYCSQNTHVPRTFGQGTKVEIKRTVAAPSVFIFPPSDEQLKSGTASVVCLLNNFYPREAKVQWKVDNALQSGNSQESVTEQDSKDSTYSLSSTLTLSKADYEKHKVYACEVTHQGLSSPVTKSFNRGEC
heavy: not shown
mean fluorescence relative to chimera (rat CD47): 3.3 | mean fluorescence relative to chimera (mouse CD47): 1.4 | mean fluorescence relative to chimera (human CD47): 1.2 | mean fluorescence relative to chimera (dog CD47): 1.1 | mean fluorescence relative to chimera (pig CD47): 1.7

B2: Clone 5 (pVxK7b-037-hum05-LC / pVxK7b-037-hum05-HC) (antibody, human IgG1, kappa)
light: DIVMTQTPLSLPVTPGEPASISCRSSQSLVHSNGNTYLHWYLQKPGQSPQLLIYKVSYRFSGVPDRFSGSGSGTDFTLKISRVEAEDVGVYYCSQNTHVPRTFGQGTKVEIKRTVAAPSVFIFPPSDEQLKSGTASVVCLLNNFYPREAKVQWKVDNALQSGNSQESVTEQDSKDSTYSLSSTLTLSKADYEKHKVYACEVTHQGLSSPVTKSFNRGEC
heavy: not shown
mean fluorescence relative to chimera (rat CD47): 2.2 | mean fluorescence relative to chimera (mouse CD47): 1 | mean fluorescence relative to chimera (human CD47): 1 | mean fluorescence relative to chimera (dog CD47): 1.1 | mean fluorescence relative to chimera (pig CD47): 1.2

B3: Clone 9 (pVxK7b-037-hum09-LC / pVxK7b-037-hum09-HC) (antibody, human IgG1, kappa)
light: DVVMTQSPLSLPVTLGQPASISCRSSQSLVHSNGNTYLHWYQQKPGKAPKLLIYKVSYRFSGVPDRFSGSGSGTDFTLKISRVEAEDVGVYYCSQNTHVPRTFGQGTKVEIKRTVAAPSVFIFPPSDEQLKSGTASVVCLLNNFYPREAKVQWKVDNALQSGNSQESVTEQDSKDSTYSLSSTLTLSKADYEKHKVYACEVTHQGLSSPVTKSFNRGEC
heavy: not shown
notes: also called Cl 9
mean fluorescence relative to chimera (rat CD47): 3.7 | mean fluorescence relative to chimera (mouse CD47): 1.4 | mean fluorescence relative to chimera (human CD47): 1.2 | mean fluorescence relative to chimera (dog CD47): 1 | mean fluorescence relative to chimera (pig CD47): 1.6

B4: Clone 10 (pVxK7b-037-hum10-LC / pVxK7b-037-hum10-HC) (antibody, human IgG1, kappa, V domains shown)
VH: QVQLQESGPGLVKPSQTLSLTCTVSGYTFTNYYVFWVRQARGQRLEWIGDINPVNGDTNFNEKFKNRLTISKDTSKNQVVLTMTNMDPVDTATYYCARGGYTMDYWGQGTLVTVSS
VL: DIVMTQTPLSLPVTPGEPASISCRSSQSLVHSNGNTYLHWYLQKPGQSPQLLIYKVSYRFSGVPDRFSGSGSGTDFTLKISRVEAEDVGVYYCSQNTHVPRTFGQGTKVEIKR
mean fluorescence relative to chimera (rat CD47): 2.9 | mean fluorescence relative to chimera (mouse CD47): 1.2 | mean fluorescence relative to chimera (human CD47): 1.1 | mean fluorescence relative to chimera (dog CD47): 1.1 | mean fluorescence relative to chimera (pig CD47): 1.5

B5: Clone 2 (pVxK7b-037-hum02-LC / pVxK7b-037-hum02-HC) (antibody, human IgG1, kappa, V domains shown)
VH: QVQLQESGPGLVKPSQTLSLTCTVSGYTFTNYYVFWVRQARGQRLEWIGDINPVNGDTNFNEKFKNRVTISADKSISTAYLQWSSLKASDTAMYYCARGGYTMDYWGQGTLVTVSS
VL: DVVMTQSPLSLPVTLGQPASISCRSSQSLVHSNGNTYLHWYQQKPGQAPRLLIYKVSYRFSGVPSRFSGSGSGTEFTLTISSLQPDDFATYYCSQNTHVPRTFGQGTKVEIKR
mean fluorescence relative to chimera (rat CD47): 2.6 | mean fluorescence relative to chimera (mouse CD47): 1.2 | mean fluorescence relative to chimera (human CD47): 1 | mean fluorescence relative to chimera (dog CD47): 1 | mean fluorescence relative to chimera (pig CD47): 1.2

B6: Clone 6 (pVxK7b-037-hum06-LC / pVxK7b-037-hum06-HC) (antibody, human IgG1, kappa, V domains shown)
VH: QVQLQESGPGLVKPSQTLSLTCTVSGYTFTNYYVFWVRQARGQRLEWIGDINPVNGDTNFNEKFKNRLTISKDTSKNQVVLTMTNMDPVDTATYYCARGGYTMDYWGQGTLVTVSS
VL: DIQMTQSPSSLSASVGDRVTITCRSSQSLVHSNGNTYLHWYLQKPGQSPQLLIYKVSYRFSGIPARFSGSGSGTEFTLTISSLQSEDFAVYYCSQNTHVPRTFGQGTKVEIKR
mean fluorescence relative to chimera (rat CD47): 2.1 | mean fluorescence relative to chimera (mouse CD47): 1.2 | mean fluorescence relative to chimera (human CD47): 0.9 | mean fluorescence relative to chimera (dog CD47): 1.1 | mean fluorescence relative to chimera (pig CD47): 1.1

B7: Clone 22 (pVxK7b-037-hum22-LC / pVxK7b-037-hum22-HC) (antibody, human IgG1, kappa, V domains shown)
VH: QVQLQESGPGLVKPSQTLSLTCTVSGYTFTNYYVFWVRQARGQRLEWIGDINPVNGDTNFNEKFKNRLTISKDTSKNQVVLTMTNMDPVDTATYYCARGGYTMDYWGQGTLVTVSS
VL: EIVLTQSPATLSVSPGERATLSCRSSQSLVHSNGNTYLHWYQQKPGQAPRLLIYKVSYRFSGVPSRFSGSGSGTDFTFTISSLEAEDAATYYCSQNTHVPRTFGQGTKVEIKR
mean fluorescence relative to chimera (rat CD47): 2.8 | mean fluorescence relative to chimera (mouse CD47): 1.2 | mean fluorescence relative to chimera (human CD47): 1.1 | mean fluorescence relative to chimera (dog CD47): 1 | mean fluorescence relative to chimera (pig CD47): 1.4

B8: Clone 4 (pVxK7b-037-hum04-LC / pVxK7b-037-hum04-HC) (antibody, human IgG1, kappa, V domains shown)
VH: QVQLQESGPGLVKPSQTLSLTCTVSGYTFTNYYVFWVRQAPGKGLEWVSDINPVNGDTNFNEKFKNRVTISVDTSKNQFSLKLSSVTAADTAVYYCARGGYTMDYWGQGTLVTVSS
VL: DIQMTQSPSSLSASVGDRVTITCRSSQSLVHSNGNTYLHWYLQKPGQSPQLLIYKVSYRFSGIPARFSGSGSGTEFTLTISSLQSEDFAVYYCSQNTHVPRTFGQGTKVEIKR
mean fluorescence relative to chimera (rat CD47): 1 | mean fluorescence relative to chimera (mouse CD47): 0.6 | mean fluorescence relative to chimera (human CD47): 0.6 | mean fluorescence relative to chimera (dog CD47): 0.6 | mean fluorescence relative to chimera (pig CD47): 0.6

B9: Clone 24 (pVxK7b-037-hum24-LC / pVxK7b-037-hum24-HC) (antibody, human IgG1, kappa, V domains shown)
VH: QVQLQESGPGLVKPGATVKISCKVSGYTFTNYYVFWVRQARGQRLEWIGDINPVNGDTNFNEKFKNRVTITADKSTSTAYMELSSLRSEDTAVYYCARGGYTMDYWGQGTLVTVSS
VL: AIQLTQSPSSLSASVGDRVTITCRSSQSLVHSNGNTYLHWYQQKPGQAPRLLIYKVSYRFSGVPSRFSGSGSGTEFTLTISSLQPDDFATYYCSQNTHVPRTFGQGTKVEIKR
notes: also called Cl 24
mean fluorescence relative to chimera (rat CD47): 1.2 | mean fluorescence relative to chimera (mouse CD47): 0.7 | mean fluorescence relative to chimera (human CD47): 0.8 | mean fluorescence relative to chimera (dog CD47): 1 | mean fluorescence relative to chimera (pig CD47): 1.1

B10: Clone 21 (pVxK7b-037-hum21-LC / pVxK7b-037-hum21-HC) (antibody, human IgG1, kappa, V domains shown)
VH: QVQLQESGPGLVKPSQTLSLTCTVSGYTFTNYYVFWVRQARGQRLEWIGDINPVNGDTNFNEKFKNRLTISKDTSKNQVVLTMTNMDPVDTATYYCARGGYTMDYWGQGTLVTVSS
VL: AIQLTQSPSSLSASVGDRVTITCRSSQSLVHSNGNTYLHWYQQKPGQAPRLLIYKVSYRFSGVPDRFSGSGSGTDFTLKISRVEAEDVGVYYCSQNTHVPRTFGQGTKVEIKR
mean fluorescence relative to chimera (rat CD47): 2.8 | mean fluorescence relative to chimera (mouse CD47): 1.2 | mean fluorescence relative to chimera (human CD47): 1.2 | mean fluorescence relative to chimera (dog CD47): 1.1 | mean fluorescence relative to chimera (pig CD47): 1.4
